The values below come from publication PMC3749527.

The target in the test is Respiratory syncytial virus nucleoprotein N, R234A mutant (human respiratory syncytial virus) (UniProt P03418).

Take “Respiratory syncytial virus nucleoprotein N, R234A mutant (from UniProt P03418 1-391) (natural protein)”: the polymerase activity (viral RNA synthesis) in an HRSV plasmid-based minigenome luciferase assay in BSRT7/5 cells, compared to wt N was 68 % of wt N.
